Our source for the percent saturation of CD3 and cell-bound TRX4 (MESF of anti-human IgG) values is US20090258001A1.

Test [1] addresses CD3 (CD3/TCR complex) on CD4+ and CD8+ T cells of patients (human) (UniProt P07766). The test can be described thus: flow cytometry of CD4+ T cells, free CD3 sites by biotinylated TRX4; Example 3 Cohort 3, 0.1 mg.
For test [2] the target is unchanged. Briefly: flow cytometry of CD4+ T cells, anti-human IgG; Example 3 Cohort 3, end of 0.1 mg infusion. In general terms: In flow cytometry, cells or beads pass a laser one at a time.
Test [3] has the same target. Briefly: flow cytometry of CD4+ T cells, free CD3 sites by biotinylated TRX4; Example 4 Cohort B, 0.3 mg.
Test [4] has the same target. Briefly: flow cytometry of CD4+ T cells, anti-human IgG; Example 4 Cohort B, end of 0.75 mg infusion.
Test [5] shares this target. Briefly: flow cytometry of CD4+ T cells, anti-human IgG; Example 4 Cohort A, end of 0.3 mg infusion.
The target is the same in test [6]. Briefly: flow cytometry of CD4+ T cells, anti-human IgG; Example 4 Cohort C, end of 0.1 mg infusion.
Test [7] has the same target. The test can be described thus: flow cytometry of CD4+ T cells, anti-human IgG; Example 3 Cohort 2 (0.5 mg x3), 2 hours after end of dosing.
For test [8] the target is unchanged. The test can be described thus: flow cytometry of CD4+ T cells, free CD3 sites by biotinylated TRX4; Example 3 Cohort 3, 0.5 mg, end of infusion.
Test [9] shares this target. Briefly: flow cytometry, free sites by biotinylated TRX4; Example 4, 4-dose cohorts, 24 hours after infusion.

Chain of UniProt P07766 (P07766 23-207, chain 1 of 3): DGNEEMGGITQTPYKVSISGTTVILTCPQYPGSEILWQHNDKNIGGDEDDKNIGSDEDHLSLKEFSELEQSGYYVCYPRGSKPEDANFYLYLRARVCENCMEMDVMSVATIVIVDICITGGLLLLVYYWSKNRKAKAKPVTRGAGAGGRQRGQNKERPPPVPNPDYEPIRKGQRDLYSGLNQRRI
Chain of UniProt P07766 (chain, as listed by the source, chain 2 of 3): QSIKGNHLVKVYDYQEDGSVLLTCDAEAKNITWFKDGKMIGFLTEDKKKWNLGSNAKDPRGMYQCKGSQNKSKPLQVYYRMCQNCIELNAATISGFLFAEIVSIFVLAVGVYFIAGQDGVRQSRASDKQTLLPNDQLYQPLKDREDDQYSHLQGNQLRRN
Chain of UniProt P07766 (chain, as listed by the source, chain 3 of 3): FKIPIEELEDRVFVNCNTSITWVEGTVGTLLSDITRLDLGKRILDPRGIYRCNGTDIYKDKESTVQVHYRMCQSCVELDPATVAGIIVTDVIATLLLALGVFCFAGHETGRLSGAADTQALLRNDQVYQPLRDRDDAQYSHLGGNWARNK

Take TRX4 antibody: the percent saturation of CD3 in test [1] is 45%; in [3] it was 80%; in [8], 90%; in test [9], 40%. Also, the cell-bound TRX4 (MESF of anti-human IgG) in [2] was 100000 MESF units; in test [4], 480000 MESF units; in [5] it was 600000 MESF units; in test [6], 800000 MESF units; in test [7], 400000 MESF units.
